First the molecules themselves.
B1: SQ20 (peptide)
peptide: SSYHHFKMPELHFGKNTFHQ
notes: Found by phage display; also called peptide SQ20
B2: QP20 (peptide)
peptide: QTRTVPMPKIHHPPWQNVVP
notes: Found by phage display; also called peptide QP20
B3: HD20 (peptide)
peptide: HHHQVYQVRSHWTGMHSGHD
notes: Found by phage display; also called peptide HD20

The target of one assay is human PD-1 on Jurkat cells (human, UniProt Q15116 25-288). Nature of the assay: cell-based or functional assay.
Chain of human PD-1 on Jurkat cells (Q15116 25-288): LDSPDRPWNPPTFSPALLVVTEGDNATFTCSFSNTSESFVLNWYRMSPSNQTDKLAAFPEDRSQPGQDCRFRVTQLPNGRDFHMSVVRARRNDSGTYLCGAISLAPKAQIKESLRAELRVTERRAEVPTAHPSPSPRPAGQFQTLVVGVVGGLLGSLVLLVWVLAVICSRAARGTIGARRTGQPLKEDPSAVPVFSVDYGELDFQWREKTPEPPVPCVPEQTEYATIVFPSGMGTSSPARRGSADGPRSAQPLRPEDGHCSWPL
With B1, the “peak-fold inhibition (luciferase reporter)” value (“peak-fold inhibition” for short) was around 1.5 fold.

On to B2, for which the “peak-fold inhibition” value is around 1.5 fold.

On to WNLPASFHNHHIRPHEHEWIQ (also called WQ-21; peptide WQ20) [WQ20], for which the “peak-fold inhibition” value is around 1.5 fold.

Regarding B3, the “peak-fold inhibition” value is around 1.5 fold.

The target of another assay is T1, soluble recombinant human PD-1 receptor (human, UniProt Q15116 25-167, limits assumed).
T1 construct: also called human PD-1 receptors
T1 sequence (Q15116 25-167 limits assumed): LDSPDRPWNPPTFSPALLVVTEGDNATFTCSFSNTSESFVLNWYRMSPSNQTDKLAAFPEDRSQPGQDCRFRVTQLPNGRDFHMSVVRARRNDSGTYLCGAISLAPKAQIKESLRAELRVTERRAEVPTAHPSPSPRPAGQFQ
Nature of the assay: clonal phage ELISA, peptide on phage, wells coated with PD-1.
As to B1, the coated signal amounted to 0.284.

For B2, the coated signal worked out at 0.851.

For the molecule WNLPASFHNHHIRPHEHEWIQ (also called WQ-21; peptide WQ20) [WQ20], the coated signal turned out to be 0.275.

For B3, the coated signal amounted to 0.281.

For the origin of these results see patent EP3758732B1 (Leidos, Inc., dated 2024).
